Read-outs that look alike come from different tables or passages of the source. No end group written: not given here.
Key:
Experiment in all cases: 125I-PP displacement
human Y4 receptor [1] = molecular target: T1, human Y4 receptor (human, UniProt P50391 1-375)
human Y4 receptor [2] = molecular target: T1, human Y4 receptor; remark: listed apart in the source
human Y4 receptor [3] = molecular target: T1, human Y4 receptor; remark: listed apart in the source

T1 sequence (P50391 whole entry): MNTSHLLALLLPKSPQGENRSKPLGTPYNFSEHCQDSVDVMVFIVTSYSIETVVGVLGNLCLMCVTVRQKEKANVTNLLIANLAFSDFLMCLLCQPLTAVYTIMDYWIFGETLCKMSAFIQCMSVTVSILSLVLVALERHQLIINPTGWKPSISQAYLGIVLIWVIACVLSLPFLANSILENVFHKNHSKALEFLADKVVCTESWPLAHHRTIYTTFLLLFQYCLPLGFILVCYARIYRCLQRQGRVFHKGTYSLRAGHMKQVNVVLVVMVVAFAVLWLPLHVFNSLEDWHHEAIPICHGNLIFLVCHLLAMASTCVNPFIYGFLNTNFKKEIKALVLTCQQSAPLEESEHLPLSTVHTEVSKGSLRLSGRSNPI

IC50 (human Y4 receptor [2]) [nM] | Binder | further results
0.146 | APLEPVYPGDNATPEELVKYAAELRRYINMLTRPRY [7163] | –
0.137 | HAPLEPVYPGDDATPQQMAHYYSELRRYINMLTRPRY [7139] | –
0.16 | AAPLEPFYPGDDATPQQIAHYAAELRRYINTLTRPRY [7148] | –
0.169 | PAPLEPEYPGDDATPQQMAHYAAELRRYINMLTRPRY [7150] | –
0.216 | AAPLEPFYPGDDATPQQMAHYAAELRRYINMLTRPRY [7144] | –
0.148 | AAPLEPFYPGDDATPQQMAHYAAELRRYINTLTRPRY [7147] | –
0.149 | HAPLEPFYPGDDATPQQMAHYAAELRRYINMLTRPRY [7146] | –
0.165 | PAPLEPFYPGDDATPQQMAHYAAELRRYINMLTRPRY [7145] | –
0.146 | AAPLEPVYPGDNATPEQMAHYAAELRRYINTLTRPRY [7158] | –
0.223 | APLEPVYPGDNATPEQNLAHYAAELRRYINMLTRPRY [7164] | –
0.119 | APLEPEYPGDDATPQQMAHYAAELRRYINMLTRPRY [7149] | –
0.21 | APLEPKYPGDNATPEQMAQYAAALRRYINMLTRPRY [7230] | –
0.089 | APLEPKYPGDNATPEQMAQYAAALRRYINKLTRPRY [7231] | –
0.106 | APLEPVYPGDNATPEQMAQYAAALRRYINKLTRPRY [compound of SEQ ID NO:167 (code 7214)] | –
0.15 | APLEPVYPGDNATPEQMAHYAAELRRYINMLTRPRY [7160] | –
0.183 | APLEPVYPGDDATPEQMAHYAAELRRYINMLTRPRY [7165] | –
0.15 | AAPLEPVYPGDNATPEQMAQYAADLRRYINKLTRPRY (ends and bridges not checked) [compound of SEQ ID NO:171 (code 7218)] | –
0.1 | PAPLEPVYPGDNATPEQMAQYAADLRRYINKLTRPRY [7220] | –
0.109 | DAPLEPVYPGDNATPEQMAQYAAALRRYINKLTRPRY [7216] | –
0.188 | PAPLEPFYPGDNATPEQMAHYAADLRRYINTLTRPRY [7143] | –
0.165 | GAPLEPVYPGDNATPEQMAHYAAELRRYINTLTRPRY [7159] | –
0.22 | DAPLEPVYPGDNATPEQMAQYAADLRRYINKLTRPRY [7219] | –
0.219 | GAPLEPVYPGDNATPEQMAHYAAELRRYINMLTRPRY [7162] | –
0.188 | PAPLEPVYPGDNATPEQMAHYAAELRRYINMLTRPRY [7161] | –
0.066 | PAPLEPVYPGDNATPEQMAQYAAALRRYINKLTRPRY [7217] | –
0.057 | AAPLEPVYPGDNATPEQMAQYAAALRRYINKLTRPRY [compound of SEQ ID NO:168 (Ala 0, Ala 23 and Lys 30, code 7215)] | –

Further lines, the binder ahead of its results:

Binder | IC50 (human Y4 receptor [2]) [nM] | further results
APLEPVYPGDNATPEELVKYYIELRRYINMLTRPRY [6851] | – | IC50 (human Y4 receptor [1]): 0.11 nM
APLEPVYPGDNATPEEIVKYFIELRRYINMLTRPRY [7124] | 0.31 | –
AAPLEPHYPGDNATPEQMARYYSELRRYINKLTRPRY [4059955] | – | IC50 (human Y4 receptor [3]): 0.044 nM
PAPLEPVYPGDDATPQQMAHYYSELRRYINMLTRPRY [7137] | 0.072 | –
AAPLEPVYPGDDATPQQMAHYYSELRRYINMLTRPRY [7138] | 0.13 | –
AAPLEPVYPGDDATPQQMAQYAAELRRYINMLTRPRY [6866] | 0.17 | –
PAPLEPVYPGDNATPEEINHYYSALRRYINMLTRPRY [7123] | 0.09 | –
HAPLEPVYPGDNATPEELNHYYASLRRYINMLTRPRY [6859] | – | IC50 (human Y4 receptor [1]): 0.15 nM
PLEPVYPGDNATPEELVKYYSALRRYINMLTRPRY [7101] | 0.069 | –
GAPLEPTYPGDDATPEQLAKYAAELRRYINKLTRPRY [4060210] | – | IC50 (human Y4 receptor [3]): 0.106 nM
KPLEPVYPGDNATPEELNRYYASLRRYINMLTRPRY [compound of SEQ ID NO:72 (code 6674)] | – | IC50 (human Y4 receptor [1]): 0.076 nM
APLEPVYPGDNATPEELVKYYASLRRYINMLTRPRY [7109] | 0.083 | –
PAPLEPVYPGDDATPQEIVHYFIELRRYINTLTRPRY [7133] | 0.173 | –
APLEPVYPGDDATPQQIAHYYSELRRYINMLTRPRY [7135] | 0.18 | –
APLEPVYPGDDATPQQMAHYYSELRRYINMLTRPRY [7136] | 0.149 | –
AAPLEPVYPGDNATPEELVKYYSALRRYINLLTRPRY [7112] | 0.095 | –
GAPLEPVYPGDNATPEELVKYYSALRRYINMLTRPRY [7102] | 0.114 | –

Binder | IC50 (human Y4 receptor [2]) [nM] | further results
PAPLEPVYPGDNATPEELVKYYSALRRYINMLTRHRY [7114] | 0.166 | –
PAPLEPVYPGDNATPEELVKYYASLRRYINMLTRPRY [7110] | 0.11 | –
PAPLEPVYPGDNATPEELVKYYSALRHYINMLTRPRY [7104] | 0.225 | –
PAPLEPVYPGDNATPEELVKYYASLRHYINMLTRPRY [7108] | 0.25 | –
APLEPVYPGDNATPEEINHYYSALRRYINMLTRPRY [7122] | 0.118 | –
APLEPVYPGDNATPEEIVHYFIELRRYINMLTRPRY [7125] | 0.1 | –
APLEPVYPGDNATPEELVKYYSALRHYINMLTRPRY [7103] | 0.2 | –
APLEPVYPGDNATPEELVKYYSALRRYINMLTRHRY [7113] | 0.084 | –
APLEPVYPGDNATPEELVHYYSALRHYINMLTRPRY [7105] | 0.15 | –
APLEPVYPGDDATPEELNHYYSALRRYINMLTRPRY [6841] | – | IC50 (human Y4 receptor [1]): 0.16 nM
APLEPVYPGDNATPEEINRYYSALRRYINMLTRPRY [7121] | 0.12 | –
APLEPVYPGDNATPEELVKYYSALRRYINLLTRPRY [7111] | 0.077 | –
APLEPFYPGDNATPEQMAQYAAELRRYINMLTRPRY [6829] | – | IC50 (human Y4 receptor [1]): 0.2 nM
APLEPVYPGDNATPEQMAQYAADLRRYINCLTRPRY [7115] | 0.229 | –
CAPLEPVYPGDNATPEQMAQYAADLRRYINCLTRPRY [7117] | 0.351 | –
PAPLEPHYPGDNATPEEMAKYATELRRYINKLTRPRY [4059934] | – | IC50 (human Y4 receptor [3]): 0.108 nM
